These results are taken from article PMC4966837 (mAbs, 2015).

This assay deals with human βc receptor on cells (TF-1 cells, human neutrophils, human eosinophils) (Homo sapiens, UniProt P32927). Put plainly: radioligand binding.
Sequence of human βc receptor on cells (TF-1 cells, human neutrophils, human eosinophils) (P32927 17-897): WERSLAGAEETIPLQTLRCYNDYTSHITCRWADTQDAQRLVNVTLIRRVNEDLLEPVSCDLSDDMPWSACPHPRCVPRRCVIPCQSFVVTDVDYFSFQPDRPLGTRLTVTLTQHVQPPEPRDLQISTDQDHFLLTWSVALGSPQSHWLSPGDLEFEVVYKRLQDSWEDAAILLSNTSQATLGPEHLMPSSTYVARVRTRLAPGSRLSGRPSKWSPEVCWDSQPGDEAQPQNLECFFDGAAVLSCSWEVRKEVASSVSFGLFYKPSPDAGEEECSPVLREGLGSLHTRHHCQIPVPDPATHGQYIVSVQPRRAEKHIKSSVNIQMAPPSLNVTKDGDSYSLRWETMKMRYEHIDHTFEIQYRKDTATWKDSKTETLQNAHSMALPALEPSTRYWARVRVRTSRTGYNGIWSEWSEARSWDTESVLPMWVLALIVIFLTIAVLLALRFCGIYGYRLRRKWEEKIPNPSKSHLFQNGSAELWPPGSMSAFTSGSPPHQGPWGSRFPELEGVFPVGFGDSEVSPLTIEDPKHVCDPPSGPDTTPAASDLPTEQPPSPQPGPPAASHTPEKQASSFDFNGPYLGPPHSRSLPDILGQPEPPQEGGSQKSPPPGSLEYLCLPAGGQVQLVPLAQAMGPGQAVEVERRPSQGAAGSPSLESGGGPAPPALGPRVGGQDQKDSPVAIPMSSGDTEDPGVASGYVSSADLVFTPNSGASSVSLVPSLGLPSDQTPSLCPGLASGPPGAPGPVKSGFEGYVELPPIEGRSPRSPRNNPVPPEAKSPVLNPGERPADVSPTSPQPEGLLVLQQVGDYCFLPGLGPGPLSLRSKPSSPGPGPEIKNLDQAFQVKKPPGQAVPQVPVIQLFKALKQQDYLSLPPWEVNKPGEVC

B1: CSL311 (human IgG4-kappa monoclonal antibody) (antibody, V domains shown)
VH: EVQLLESGGGLVQPGGSLRLSCAASGFTFPWYRVHWVRQAPGKGLEWVSSIRSSGGFPYYNYKVKGRFTISRDNSKNTLYLQMNSLRAEDTAVYYCARFYDSFFDIWGQGTMVTVSS
VL: DIQMTQSPSSVSASVGDRVTITCRASQGISSWLAWYQQKPGKAPKLLIYAASSLQSGVPSRFSGSGSGTDFTLTISSLQPEDFATYYCQQANSFPITFGQGTRLEIK
With B1, the Kd was in the range of 0.25 to 0.73 nM.

B2: CSL311 Fab fragment (Fab, V domains shown)
VH: B1 VH
VL: B1 VL
B2 displayed a Kd of 0.38 to 0.67 nM.
